B1: SH2D3A (protein, UniProt Q9BRG2 1-576, looked up)
SH2 domain-containing protein …: MQVPQDGEDLAGQPWYHGLLSRQKAEALLQQNGDFLVRASGSRGGNPVISCRWRGSALHFEVFRVALRPRPGRPTALFQLEDEQFPSIPALVHSYMTGRRPLSQATGAVVSRPVTWQGPLRRSFSEDTLMDGPARIEPLRARKWSNSQPADLAHMGRSREDPAGMEASTMPISALPRTSSDPVLLKAPAPLGTVADSLRASDGQLQAKAPTKPPRTPSFELPDASERPPTYCELVPRVPSVQGTSPSQSCPEPEAPWWEAEEDEEEENRCFTRPQAEISFCPHDAPSCLLGPQNRPLEPQVLHTLRGLFLEHHPGSTALHLLLVDCQATGLLGVTRDQRGNMGVSSGLELLTLPHGHHLRLELLERHQTLALAGALAVLGCSGPLEERAAALRGLVELALALRPGAAGDLPGLAAVMGALLMPQVSRLEHTWRQLRRSHTEAALAFEQELKPLMRALDEGAGPCDPGEVALPHVAPMVRLLEGEEVAGPLDESCERLLRTLHGARHMVRDAPKFRKVAAQRLRGFRPNPELREALTTGFVRRLLWGSRGAGAPRAERFEKFQRVLGVLSQRLEPDR
B2: BAIAP2 (protein, UniProt Q9UQB8 1-552, looked up)
BAR/IMD domain-containing …: MSLSRSEEMHRLTENVYKTIMEQFNPSLRNFIAMGKNYEKALAGVTYAAKGYFDALVKMGELASESQGSKELGDVLFQMAEVHRQIQNQLEEMLKSFHNELLTQLEQKVELDSRYLSAALKKYQTEQRSKGDALDKCQAELKKLRKKSQGSKNPQKYSDKELQYIDAISNKQGELENYVSDGYKTALTEERRRFCFLVEKQCAVAKNSAAYHSKGKELLAQKLPLWQQACADPSKIPERAVQLMQQVASNGATLPSALSASKSNLVISDPIPGAKPLPVPPELAPFVGRMSAQESTPIMNGVTGPDGEDYSPWADRKAAQPKSLSPPQSQSKLSDSYSNTLPVRKSVTPKNSYATTENKTLPRSSSMAAGLERNGRMRVKAIFSHAAGDNSTLLSFKEGDLITLLVPEARDGWHYGESEKTKMRGWFPFSYTRVLDSDGSDRLHMSLQQGKSSSTGNLLDKDDLAIPPPDYGAASRAFPAQTASGFKQRPYSVAVPAFSQGLDDYGARSMSRNPFAHVQLKPTVTNDRCDLSAQGPEGREHGDGSARTLAGR
B3: Shc1 (protein, UniProt P98083 1-579, looked up)
SHC-transforming protein 1: MDLLPPKPKYNPLRNESLSSLEEGASGSTPPEELPSPSASSLGPILPPLPGDDSPTTLCSFFPRMSNLKLANPAGGRLGPKGEPGKAAEDGEGSAGAALRDSGLLPLLQDMNKLSGGGGRRTRVEGGQLGGEEWTRHGSFVNKPTRGWLHPNDKVMGPGVSYLVRYMGCVEVLQSMRALDFNTRTQVTREAISLVCEAVPGAKGATRRRKPCSRPLSSILGRSNLKFAGMPITLTVSTSSLNLMAADCKQIIANHHMQSISFASGGDPDTAEYVAYVAKDPVNQRACHILECPEGLAQDVISTIGQAFELRFKQYLRNPPKLVTPHDRMAGFDGSAWDEEEEEPPDHQYYNDFPGKEPPLGGVVDMRLREGAARPTLPSAQMSSHLGATLPIGQHAAGDHEVRKQMLPPPPCPGRELFDDPSYVNIQNLDKARQAGGGAGPPNPSLNGSAPRDLFDMKPFEDALRVPPPPQSMSMAEQLQGEPWFHGKLSRREAEALLQLNGDFLVRESTTTPGQYVLTGLQSGQPKHLLLVDPEGVVRTKDHRFESVSHLISYHMDNHLPIISAGSELCLQQPVDRKV
B4: MAPK8 (protein, UniProt P45983 1-427, looked up)
Mitogen-activated protein …: MSRSKRDNNFYSVEIGDSTFTVLKRYQNLKPIGSGAQGIVCAAYDAILERNVAIKKLSRPFQNQTHAKRAYRELVLMKCVNHKNIIGLLNVFTPQKSLEEFQDVYIVMELMDANLCQVIQMELDHERMSYLLYQMLCGIKHLHSAGIIHRDLKPSNIVVKSDCTLKILDFGLARTAGTSFMMTPYVVTRYYRAPEVILGMGYKENVDLWSVGCIMGEMVCHKILFPGRDYIDQWNKVIEQLGTPCPEFMKKLQPTVRTYVENRPKYAGYSFEKLFPDVLFPADSEHNKLKASQARDLLSKMLVIDASKRISVDEALQHPYINVWYDPSEAEAPPPKIPDKQLDEREHTIEEWKELIYKEVMDLEERTKNGVIRGQPSPLGAAVINGSQHPSSSSSVNDVSSMSTDPTLASDTDSSLEAAAGPLGCCR
B5: MAP3K3 (protein, UniProt Q99759 1-626, looked up)
Mitogen-activated protein …: MDEQEALNSIMNDLVALQMNRRHRMPGYETMKNKDTGHSNRQSDVRIKFEHNGERRIIAFSRPVKYEDVEHKVTTVFGQPLDLHYMNNELSILLKNQDDLDKAIDILDRSSSMKSLRILLLSQDRNHNSSSPHSGVSRQVRIKASQSAGDINTIYQPPEPRSRHLSVSSQNPGRSSPPPGYVPERQQHIARQGSYTSINSEGEFIPETSEQCMLDPLSSAENSLSGSCQSLDRSADSPSFRKSRMSRAQSFPDNRQEYSDRETQLYDKGVKGGTYPRRYHVSVHHKDYSDGRRTFPRIRRHQGNLFTLVPSSRSLSTNGENMGLAVQYLDPRGRLRSADSENALSVQERNVPTKSPSAPINWRRGKLLGQGAFGRVYLCYDVDTGRELASKQVQFDPDSPETSKEVSALECEIQLLKNLQHERIVQYYGCLRDRAEKTLTIFMEYMPGGSVKDQLKAYGALTESVTRKYTRQILEGMSYLHSNMIVHRDIKGANILRDSAGNVKLGDFGASKRLQTICMSGTGMRSVTGTPYWMSPEVISGEGYGRKADVWSLGCTVVEMLTEKPPWAEYEAMAAIFKIATQPTNPQLPSHISEHGRDFLRRIFVEARQRPSAEELLTHHFAQLMY
B6: WASF3 (protein, UniProt Q9UPY6 1-502, looked up)
Actin-binding protein WASF3: MPLVKRNIEPRHLCRGALPEGITSELECVTNSTLAAIIRQLSSLSKHAEDIFGELFNEANNFYIRANSLQDRIDRLAVKVTQLDSTVEEVSLQDINMKKAFKSSTVQDQQVVSKNSIPNPVADIYNQSDKPPPLNILTPYRDDKKDGLKFYTDPSYFFDLWKEKMLQDTEDKRKEKRRQKEQKRIDGTTREVKKVRKARNRRQEWNMMAYDKELRPDNRLSQSVYHGASSEGSLSPDTRSHASDVTDYSYPATPNHSLHPQPVTPSYAAGDVPPHGPASQAAEHEYRPPSASARHMALNRPQQPPPPPPPQAPEGSQASAPMAPADYGMLPAQIIEYYNPSGPPPPPPPPVIPSAQTAFVSPLQMPMQPPFPASASSTHAAPPHPPSTGLLVTAPPPPGPPPPPPGPPGPGSSLSSSPMHGPPVAEAKRQEPAQPPISDARSDLLAAIRMGIQLKKVQEQREQEAKREPVGNDVATILSRRIAVEYSDSDDDSEFDENDWSD
B7: SH3GL2 (protein, UniProt Q99962 1-352, looked up)
Endophilin-A1: MSVAGLKKQFHKATQKVSEKVGGAEGTKLDDDFKEMERKVDVTSRAVMEIMTKTIEYLQPNPASRAKLSMINTMSKIRGQEKGPGYPQAEALLAEAMLKFGRELGDDCNFGPALGEVGEAMRELSEVKDSLDIEVKQNFIDPLQNLHDKDLREIQHHLKKLEGRRLDFDYKKKRQGKIPDEELRQALEKFDESKEIAESSMFNLLEMDIEQVSQLSALVQAQLEYHKQAVQILQQVTVRLEERIRQASSQPRREYQPKPRMSLEFPTGDSTQPNGGLSHTGTPKPSGVQMDQPCCRALYDFEPENEGELGFKEGDIITLTNQIDENWYEGMLHGHSGFFPINYVEILVALPH

Target: T1, EGFR-Wt (Homo sapiens, UniProt P00533)
T1 construct: with the advantage of testing full-length integral membrane proteins; (GGGGS)2 linker-Cub (human ubiquitin aa 35-76)-GAL4(1-147)-mNFkB(364-550) (C); expressed in transfected cells
Assay: MaMTH EGFR-interactor screen, lentiviral preys against EGFR-wildtype bait (interaction score)
Format: cell-based
Conditions: MaMTH interaction score of prey with EGFR-Wt bait, mean
How it was run: (§1)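 5×GAL4UAS-luciferase HEK293T reporter cells were lentivirally infected with preys (MOI ~0.3-0.4) and puromycin-selected ≥48 h. They were then transfected in triplicate with the EGFR bait, and luciferase was read 24 h later. Score is fold-change over averaged negative-control preys; >1 denotes interaction.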

Row | EGFR-Wt mean | Molecule
1 | 4.75 | B1
2 | 4.83 | B2
3 | 13.89 | B3
4 | 3.30 | B4
5 | 2.01 | B5
6 | 1.30 | B6
7 | 4.58 | B7

Tested on: EGFR-Wt
Assay: as above
Format: cell-based, human
Conditions: ratio of EGFR-Wt mean to EGFR-L858R mean interaction score
How it was run: as §1

Row | Molecule | Wt/L858R
8 | B1 | 0.66
9 | B2 | 0.66
10 | B3 | 0.64
11 | B4 | 0.64
12 | B5 | 0.58
13 | B6 | 0.61
14 | B7 | 0.58

Target: T2, EGFR-L858R (Homo sapiens, UniProt P00533, L858R)
T2 construct: with the advantage of testing full-length integral membrane proteins; (GGGGS)2 linker-Cub (human ubiquitin aa 35-76)-GAL4(1-147)-mNFkB(364-550) (C); expressed in transfected cells
Assay: MaMTH EGFR-interactor screen, lentiviral preys against EGFR-L858R bait (interaction score)
Format: cell-based
Conditions: MaMTH interaction score of prey with EGFR-L858R bait
How it was run: as §1

Row | EGFR-L858R mean | Molecule
15 | 7.23 | B1
16 | 7.37 | B2
17 | 21.65 | B3
18 | 5.13 | B4
19 | 3.46 | B5
20 | 2.15 | B6
21 | 7.85 | B7
